Where two headings read alike, the source gives them in different places. Blank lines part the entries; values can stand above or below the molecule they belong to.
Tests used:
[1] = biological target: T1, CCR1 (Homo sapiens, UniProt P32246); test: BRET CAMYEL cAMP sensor assay of ligand-induced Gαi signaling via CCR1; format: cell-based; conditions: n = 3
T1 construct: expressed in transfected cells; host or cells: CHO-K1, CHO-pgsB618 (GAG-minus), HEK293 WT / DeltaSia / sC
T1 sequence (P32246 1-355): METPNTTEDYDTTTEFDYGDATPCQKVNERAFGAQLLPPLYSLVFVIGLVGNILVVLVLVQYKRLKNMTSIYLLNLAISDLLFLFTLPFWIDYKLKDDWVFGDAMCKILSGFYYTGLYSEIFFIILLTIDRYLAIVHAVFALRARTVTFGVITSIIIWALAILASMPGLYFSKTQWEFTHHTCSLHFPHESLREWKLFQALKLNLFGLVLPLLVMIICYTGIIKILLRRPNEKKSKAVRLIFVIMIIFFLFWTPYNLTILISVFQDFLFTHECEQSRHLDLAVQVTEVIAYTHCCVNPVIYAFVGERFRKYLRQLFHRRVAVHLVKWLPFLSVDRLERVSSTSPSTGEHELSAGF
Experimental: For quantification of signaling initiated immediate downstream of receptor activation, we used the cAMP binding CAMYEL sensor to perform bioluminescence resonance energy transfer (BRET)-based assays. Shortly, in this assay increased receptor activation leads to an increase in BRET ratio. For detailed information see the Materials and Methods section.
In signaling assays testing the boosting ability of basic peptides, transfected cells were aliquoted into 96-well plates in the presence of 10 µM peptide or PBS vehicle. After R-Luc substrate addition, chemokines were added to reach final concentrations ranging from 0–100 nM (0, 0.1, 1, 10, and 100 nM) and forskolin was applied before reading emission at 475 and 525 nm.
BRET measurements of Gαi signaling and β-arrestin recruitment: Cells were seeded in 6-well plates (500,000 cells/well) and transiently transfected the following day. For BRET measurements of Gαi signaling, cells were transfected with vectors encoding the human chemokine receptors as indicated (160 ng/well) and the CAMYEL sensor (cAMP sensor, YFP-Epac-RLuc) (840 ng/well) using Lipofectamine (6 µL/well). Briefly, DNA was dissolved in 125 µL OPTI-MEM and Lipofectamine was dissolved in 125 µL OPTI-MEM. The DNA and Lipofectamine solutions were combined into a transfection mixture. The transfection mixture was added dropwise to cells incubated in OPTI-MEM (1 mL/well). Transfections were terminated after 5 h by adding 1 mL of fresh culture medium on top of the OPTI-MEM. The following day the cells were loosened from the plates in PBS with 5 mM glucose and subsequently aliquoted in white 96-well iso plates (~25,000 cells/well). When using C21TP variants and defense peptides (hBD2 and histatin), these were added to a final concentration of 10 μM/well, while an equal amount of PBS was added to control cells. The bioluminescence substrate coelenterazine was added to a final conc. of 5 µM. After 10 min, varying ligand concentrations were added. For BRET measurements of Gαi signaling, forskolin was added 5 min after the addition of the ligand, to a final conc. of 5 µM. The plates were kept in the dark at all times. A Perkin Elmer Envision machine was used for measuring the emission signals at 530 and 480 nm. The BRET signal is determined as the ratio eYFP (530 nm)/Rluc (480 nm).
BRET principle with CAMYEL: For quantification of signaling initiated immediately downstream of receptor activation, we used the cAMP binding CAMYEL sensor to perform bioluminescence resonance energy transfer (BRET) based assays. In this assay we measure changes in intracellular cAMP levels in response to receptor activation. Activation of chemokine receptors lead to a decrease in cAMP through inhibition of adenylate cyclase (AC). In the current setup we initially add forskolin that stimulates AC directly to induce an increase in intracellular cAMP, and we then measure the ability of a ligand (chemokine) to counteract the forskolin-induced increase in cAMP. The cAMP sensor (CAMYEL cAMP sensor, YFP-Epac-RLuc) carries the donor Renilla luciferase (Rluc) and the acceptor YFP. Coelenterazine is a substrate for Rluc that will emit light at around 475 nm upon enzymatic cleavage catalyzed by Rluc. When Rluc and YFP are in close proximity, the energy from the emitted light from coelenterazine can be transferred to YFP, resulting in an excitation of YFP, leading to a BRET signal around 525 nm. EPAC is a cAMP binding protein that changes conformation upon cAMP binding. During low cAMP concentrations, Rluc and YFP are near each other, and a strong BRET signal at 525 nm is obtained. When cAMP levels increase, cAMP will bind to EPAC, creating a conformational change, separating Rluc and YFP, reducing the BRET ratio, and increasing the emission from Rluc at 475 nm. Thus, by measuring the ratio between the cAMP-bound (475 nm) and the cAMP-free (525 nm) state of CAMYEL we obtain a measure of receptor activation. […]

[2] = tested on: CCR2 D25A/D27A mutant; conditions: cited from earlier work
Source text: (§1) The reliance on electrostatic interactions between basic amino acids in the chemokine and acidic regions in the receptor N-terminus for chemokine receptor binding is illustrated by a study carried out by Hemmerich et al.. To investigate the influence of charge, hydrophobicity, and aromaticity on binding of CCL2 to its cognate receptor CCR2, this group substituted all surface-exposed residues on CCL2 by alanine. […] In contr ...

[3] = biological target: CCR2; conditions: mean ± SD; SD; read-out: binding affinity, Kd, for the WT receptor CCR2; cited from earlier work
Source text: as §1

[4] = biological target: fully sulfated version of the CCR1 N-terminal peptide; design: method as in PMID 30567735; conditions: read-out: affinity for the fully sulfated version of the CCR1 N-terminal peptide; cited from earlier work
[5] = tested on: peptide corresponding to the CCR2 receptor N-terminus; conditions: cited from earlier work
[6] = biological target: CCL5 (Homo sapiens) (UniProt P13501); conditions: cited from earlier work
[7] = biological target: CCL7 (Homo sapiens) (UniProt P80098); conditions: cited from earlier work
[8] = biological target: CCL2 (Homo sapiens) (UniProt P13500); conditions: cited from earlier work
[9] = biological target: CCL2 (Homo sapiens) (UniProt P13500); conditions: cited from earlier work; remark: listed apart in the source
[10] = biological target: T2, chemokine receptor CCR1 (untagged, wild type) (human) (UniProt P32246)
T2 sequence: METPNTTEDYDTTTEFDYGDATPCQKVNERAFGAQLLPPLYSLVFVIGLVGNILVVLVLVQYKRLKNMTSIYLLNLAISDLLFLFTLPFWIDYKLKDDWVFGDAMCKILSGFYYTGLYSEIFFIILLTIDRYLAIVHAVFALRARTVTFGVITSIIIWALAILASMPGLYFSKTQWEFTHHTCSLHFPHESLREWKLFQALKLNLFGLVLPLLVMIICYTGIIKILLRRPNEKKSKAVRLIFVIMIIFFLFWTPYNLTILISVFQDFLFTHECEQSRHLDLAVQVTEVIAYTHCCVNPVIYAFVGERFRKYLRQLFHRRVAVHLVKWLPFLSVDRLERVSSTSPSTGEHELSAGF

[11] = biological target: chemokine receptor CCR5 (untagged, wild type) (human) (UniProt P51681)
[12] = biological target: T3, FAM-labelled peptide corresponding to the naked (unmodified) CCR1 N-terminus (human, 5,6-carboxyfluorescein (5,6-FAM) on the N-terminus); test: fluorescence polarisation; FAM-labelled receptor N-terminal peptide as probe at 250 nM in FP buffer (1:3, PBS:MilliQ), black 384-well plate; basic peptide titrated in a two-fold series, 12.21 nM to 100 µM (told for C21TP^81-111); triplicates; Kd fitted in GraphPad Prism 9; conditions: both partners purified
T3 construct: first printed residue of the probe; stretch of the N-terminus of the chemokine receptor CCR1, not sulfated, not glycosylated; also called CCR1 N-terminal peptide; CCR1 probe
T3 peptide: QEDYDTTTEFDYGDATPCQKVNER

Sequence of CCL2 (Homo sapiens) (P13500 24-99): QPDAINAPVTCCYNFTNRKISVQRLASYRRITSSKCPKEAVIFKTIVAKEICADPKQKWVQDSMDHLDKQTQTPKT
Sequence of chemokine receptor CCR5 (untagged, wild type) (human) (P51681 whole entry): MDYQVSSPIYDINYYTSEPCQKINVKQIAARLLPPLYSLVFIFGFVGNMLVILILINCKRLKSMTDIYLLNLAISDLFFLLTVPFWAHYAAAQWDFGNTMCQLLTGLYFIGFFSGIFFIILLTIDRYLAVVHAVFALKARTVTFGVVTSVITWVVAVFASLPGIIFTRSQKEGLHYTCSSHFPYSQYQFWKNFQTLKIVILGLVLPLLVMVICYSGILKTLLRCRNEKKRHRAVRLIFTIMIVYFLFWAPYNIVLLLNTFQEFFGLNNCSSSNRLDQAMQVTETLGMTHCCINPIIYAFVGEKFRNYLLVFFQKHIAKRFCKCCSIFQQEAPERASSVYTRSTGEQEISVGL
Sequence of CCL7 (Homo sapiens) (P80098 24-99): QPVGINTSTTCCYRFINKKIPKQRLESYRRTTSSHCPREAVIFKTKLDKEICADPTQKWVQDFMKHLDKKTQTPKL
Sequence of CCL5 (Homo sapiens) (P13501 24-91): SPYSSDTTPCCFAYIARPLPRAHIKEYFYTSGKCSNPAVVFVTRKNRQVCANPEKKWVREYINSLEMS

Molecule: CCL2: human chemokine from Peprotech
Gαi signaling response of M1-CCR1 to ligand ([1]; M1-tagged CCR1, HEK293 WT cells): to a minor degree | reduction in affinity, D25A/D27A mutant versus WT CCR2 [2]: approximately 50 fold | Kd ([2]; read-out: binding affinity, Kd, for the D25A/D27A mutant version of CCR2): ≥ 3 nM | Kd [3]: 0.066 ± 0.01 nM | Kd [4]: 100 nM

Molecule: CCL7: human chemokine from Peprotech
Gαi signaling via CCR1 in DeltaSia and sC cells compared to WT cells ([1]; HEK293 DeltaSia and sC): persists in DeltaSia and sC to almost the same high level as observed in WT cells | Kd [4]: 100 nM | increase of chemokine binding by tyrosine sulfation of the CCR2 N-terminus peptide [5]: up to 36 fold

Molecule: CCR1 N-terminus (from UniProt P32246)
Kd [6]: 100 nM | Kd [7]: 100 nM | Kd [8]: 100 nM

Molecule: CCR2 (from UniProt P41597)
Kd [9]: > 3 nM

LogEC50 of CCL5-induced Gαi signaling (CAMYEL cAMP BRET) via CCR1 in CHO GAG-minus cells [10]: -9.42 | LogEC50 of CCL5-induced Gαi signaling (CAMYEL cAMP BRET) via CCR1 in CHO GAG-plus (WT) cells [10]: -8.89 | LogEC50 of CCL5-induced Gαi signaling (CAMYEL cAMP BRET) via CCR5 in CHO GAG-minus cells [11]: -9.63 | LogEC50 of CCL5-induced Gαi signaling (CAMYEL cAMP BRET) via CCR5 in CHO GAG-plus (WT) cells [11]: -7.52
Molecule: Human CCL5 (from UniProt P13501 24-91) (ligand)

Kd [12]: ~2890 nM
B1: C21TP^81-111, basic C-terminal peptide of the chemokine CCL21 (last 31 aa, residues 81-111) (peptide, UniProt O00585 104-134, looked up)
peptide: RKDRGASKTGKKGKGSKGCKRTERSQTPKGP
notes: also called C-terminal peptide of CCL21; source: bought: Caslo (Lyngby, Denmark)
